From US20240279357A1 (THERINI BIO, published 2024) come the findings set out here.

Assay [1] has as its target T1, plasminogen-depleted human Fibrinogen (EMD/Calbiochem) (human, UniProt P02671 20-629; P02675 31-491; P02679 27-437, limits assumed).
T1 construct: Bought protein, IgG-depleted, coated on ELISA plates; also called FGN
T1 sequence (looked up) 1: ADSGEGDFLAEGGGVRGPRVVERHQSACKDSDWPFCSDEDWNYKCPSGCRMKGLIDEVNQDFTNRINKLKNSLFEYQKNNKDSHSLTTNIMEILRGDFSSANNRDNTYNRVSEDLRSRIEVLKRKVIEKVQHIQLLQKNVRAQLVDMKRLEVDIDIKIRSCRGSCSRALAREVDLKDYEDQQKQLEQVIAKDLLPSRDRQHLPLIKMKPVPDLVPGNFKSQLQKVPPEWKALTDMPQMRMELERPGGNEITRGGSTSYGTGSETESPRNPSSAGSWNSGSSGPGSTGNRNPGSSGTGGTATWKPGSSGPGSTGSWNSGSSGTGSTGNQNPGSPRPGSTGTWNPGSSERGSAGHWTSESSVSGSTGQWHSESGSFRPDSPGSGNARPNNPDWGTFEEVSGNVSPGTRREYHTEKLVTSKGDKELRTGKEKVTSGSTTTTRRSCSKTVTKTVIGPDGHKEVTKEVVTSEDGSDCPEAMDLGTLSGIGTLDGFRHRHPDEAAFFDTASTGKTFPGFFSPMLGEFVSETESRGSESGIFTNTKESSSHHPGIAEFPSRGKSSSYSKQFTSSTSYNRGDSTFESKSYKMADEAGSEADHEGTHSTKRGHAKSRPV
T1 sequence (looked up) 2: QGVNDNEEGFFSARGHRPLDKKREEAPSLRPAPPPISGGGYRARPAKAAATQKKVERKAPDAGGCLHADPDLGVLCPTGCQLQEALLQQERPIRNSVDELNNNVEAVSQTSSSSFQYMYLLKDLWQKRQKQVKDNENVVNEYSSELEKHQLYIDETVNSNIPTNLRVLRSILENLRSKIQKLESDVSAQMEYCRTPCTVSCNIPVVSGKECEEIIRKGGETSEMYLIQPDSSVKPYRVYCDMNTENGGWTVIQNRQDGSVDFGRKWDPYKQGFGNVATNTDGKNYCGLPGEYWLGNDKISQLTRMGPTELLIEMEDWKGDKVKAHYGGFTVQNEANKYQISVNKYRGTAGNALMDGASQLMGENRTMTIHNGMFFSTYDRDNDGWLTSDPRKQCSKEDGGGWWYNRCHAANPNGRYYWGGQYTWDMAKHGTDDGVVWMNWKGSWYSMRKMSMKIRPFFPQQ
T1 sequence (looked up) 3: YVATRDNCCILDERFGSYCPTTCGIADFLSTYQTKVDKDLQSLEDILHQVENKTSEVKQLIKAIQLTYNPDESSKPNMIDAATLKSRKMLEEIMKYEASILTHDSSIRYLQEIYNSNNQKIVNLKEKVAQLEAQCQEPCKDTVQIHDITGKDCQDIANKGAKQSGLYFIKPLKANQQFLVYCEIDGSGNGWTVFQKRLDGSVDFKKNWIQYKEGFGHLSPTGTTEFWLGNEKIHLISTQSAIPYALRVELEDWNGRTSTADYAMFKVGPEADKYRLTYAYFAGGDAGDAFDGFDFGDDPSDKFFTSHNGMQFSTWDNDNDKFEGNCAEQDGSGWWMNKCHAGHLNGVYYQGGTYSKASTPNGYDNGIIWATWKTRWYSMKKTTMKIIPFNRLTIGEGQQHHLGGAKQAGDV
The assay is described as follows: ELISA on coated human fibrinogen; curve did not reach saturation. The procedure:
The humanized antibodies affinity for fibrinogen, fibrin and P2 peptide were assessed by Enzyme-linked immunosorbent assays (ELISA)s (FIGS. 7-16). ELISAs for fibrinogen binding were performed using plasminogen-depleted human Fibrinogen (EMD/Calbiochem). […] IgG1-depleted Fibrinogen (FGN) in 20 mM HEPES/Saline buffer was added to each well of half of a 96-well Nunc Maxisorp™ ELISA plate. The ELISAs for fibrin binding were prepared by adding 50 mL of 20 mM HEPES/Saline buffer containing 14 mM CaCl₂, and 2 units thrombin to each well of the second half of the Nunc Maxisorp™ ELISA plate. 50 mL of 20 mg fibrinogen in 20 mM HEPES/Saline buffer were then added to a total volume of 100 mL. Plates were placed in a 37° C. incubator for 1 hour to allow fibrinogen to clot into fibrin and subsequently placed overnight into a plate dryer at 37° C. overnight. The ELISAs for P2 peptide were prepared by addition of […] of 30 mM P2 peptide in 20 mM HEPES/Saline buffer to each well of a 96-well Nunc Maxisorp™ ELISA plate. Plates were transferred to the plate dryer and dried overnight at 37° C. All ELISAs were preformed using Nunc MaxiSorp 96-well ELISA plates. Blocking was performed using 100 mL 5% BSA in DPBS are incubated at RT for 1 hour. Plates were washed 5× in DPBS containing 0.05% Tween-20 (EL406 was used for the addition of wash buffer only). 50 mL of primary antibodies was diluted in 0.5% BSA in DPBS, and the primary antibodies were added to the plates and incubated for 2 hours at 37° C. Plates were washed 5× in DPBS/Tween. 100 mL secondary antibodies were diluted in 0.5% BSA in DPBS. The secondary antibodies were then added to the plates and incubated for 1 hour at RT. Afterwards, plates were washed 5× in DPBS/Tween. 100 mL of TMB/E substrate solution was added, and the reaction was stopped after 5 minutes with 1N HCl.
On the technique in general: An ELISA detects its analyte on a solid surface through an enzyme-linked reagent.

Assay [2] has as its target T2, P2 peptide comprising SEQ ID NO: 31 (human fibrin γ377-395) (human).
T2 construct: Bought (CPC Scientific 920712); also called human P2 peptide
T2 peptide: YSMKKTTMKIIPFNRLTIG
As to the kind of experiment: SPR (Biacore) multicycle, steady state fit; purified IgG captured, P2 peptide analyte. The protocol: Multicycle kinetics analysis of the variants were also performed to determine antibody affinity. […] At the start of each cycle, antibodies were loaded onto Fc2, Fc3 and Fc4 of the anti-human capture chip (GE Healthcare, Little Chalfont, UK). IgGs were captured at a flow rate of 10 μl/min to give an immobilization level (RL) of ˜1674 RU, the theoretical value to obtain a RMax of ˜50 RU. The surface was then allowed to stabilize. Kinetic data was obtained with P2 peptide as analyte using a flow rate of […] to minimize any potential mass transfer effects. Multiple repeats of a blank and a repeat of three concentrations of the analyte were programmed into the kinetic run in order to check the stability of both the surface and analyte over the kinetic cycles. […] The association phase of the peptide was monitored for 20 seconds and the dissociation phase was monitored for 25 seconds. Regeneration of the anti-human capture surface was conducted using one injection of 3.8 M magnesium chloride. The signal from the reference channel Fc1 was subtracted from that of Fc2, Fc3 and Fc4 to correct for differences in non-specific binding to a reference surface, and the data was then analyzed using steady state analysis due to the low affinity interaction to P2 peptide.

The EC50 is the concentration needed to bring the measured effect to its halfway point. Read a high EC50 as a need for much substance. As a reminder, the Kd is the concentration at which binding is half-saturated. The low end stands for tighter binding, the high end for weaker binding.

B1: humanized VH5/Vκ2 antibody (antibody, IgG1, V domains shown)
VH: QVQLVQSGAEVKKPGSSVKVSCKASGYTFTSYWIHWVRQAPGQGLEWIGLIDPSDSYTNYNQKFRGRVTITRDTSTSTAYMELSSLRSEDTAVYYCASSDPTGCWGQGTTVTVSS
VL: DIVMTQAAFSNPVTPGTPASISCRSSKSLLHSSGITYLSWYLQKPGQSPQLLIYQMSNLASGVPDRFSSSGSGTDFTLKISRVEAEDVGVYYCAQNLELPLTFGQGTKLEIK
notes: IgG1; also called VH5/VK2; VH5Vk2
For the molecule B1, in assay [1], the 50% effective concentration (EC50) was about 2.2 µM. Besides, in assay [2], the dissociation constant (Kd) stood at 122 µM and the “Relative KD” value worked out at 1.88 fold against VH0/VK0.

B2: humanized VH4/Vκ2 antibody (antibody, IgG1, V domains shown)
VH: QVQLVQSGAEVKKPGSSVKVSCKASGYTFTSYWIHWVRQAPGQGLEWIGLIDPSDSYTNYNQKFRGRVTITVDTSTSTAYMELSSLRSEDTAVYYCASSDPTGCWGQGTTVTVSS
VL: DIVMTQAAFSNPVTPGTPASISCRSSKSLLHSSGITYLSWYLQKPGQSPQLLIYQMSNLASGVPDRFSSSGSGTDFTLKISRVEAEDVGVYYCAQNLELPLTFGQGTKLEIK
notes: IgG1; also called VH4/VK2; VH4Vk2
In assay [1], B2 returned an EC50 of about 3.8 µM. Further, in assay [2], the Kd is 79.2 µM and the “Relative KD” value is 1.22 fold against VH0/VK0.

B3: humanized VH6/Vκ2 antibody (antibody, IgG1, V domains shown)
VH: QVQLVQSGAEVKKPGSSVKVSCKASGYTFTSYWIHWVRQAPGQGLEWIGLIDPSDSYTNYNQKFQGRVTITRDTSTSTAYMELSSLRSEDTAVYYCASSDPTGCWGQGTTVTVSS
VL: DIVMTQAAFSNPVTPGTPASISCRSSKSLLHSSGITYLSWYLQKPGQSPQLLIYQMSNLASGVPDRFSSSGSGTDFTLKISRVEAEDVGVYYCAQNLELPLTFGQGTKLEIK
notes: Expressed as IgG1; also called VH6/VK2; VH6Vk2
Consider B3, for which, in assay [1], the concentration giving a half-maximal response (EC50) is about 3.6 µM. Moreover, in assay [2], the affinity, expressed as Kd, was 132 µM and the “Relative KD” value was 2.04 fold against VH0/VK0.

B4: humanized VH4/Vκ1 antibody (antibody, IgG1, V domains shown)
VH: QVQLVQSGAEVKKPGSSVKVSCKASGYTFTSYWIHWVRQAPGQGLEWIGLIDPSDSYTNYNQKFRGRVTITVDTSTSTAYMELSSLRSEDTAVYYCASSDPTGCWGQGTTVTVSS
VL: DIVMTQAAFSNPITPGTPASISCRSSKSLLHSSGITYLSWYLQKPGQSPQLLIYQMSNLASGVPDRFSSSGSGTDFTLRISRVEAEDVGVYYCAQNLELPLTFGQGTKLEIK
notes: Expressed as IgG1; also called VH4/VK1; VH4Vk1
The molecule B4 gave an EC50 in assay [1] of about 3.2 µM. Besides, in assay [2], binding was put at a Kd of 86.2 µM and the “Relative KD” value came out at 1.33 fold against VH0/VK0.
